For series [1], the target named is H3(1–19)K4me3-b (Paramecium tetraurelia). As to the kind of experiment: ELISA; C-terminally biotinylated peptides (4 μM) on streptavidin-coated plates; purified MBP or MBP-CRD fusions (10 to ~100 nM) in buffer C (25 mM Tris pH 7.4, 150 mM NaCl, 0.1% BSA, 0.05% Tween 20), 4 °C overnight; anti-MBP-HRP, absorbance at 450 nm.
In series [2] the target is Pgm(692–768)* (Paramecium tetraurelia). In words: NMR titration; 100 μM 15N-Pgm(692–768)* titrated with 50 to 1000 μM H3(1–19), 1H-15N HSQC at 800 MHz, 5 mM HEPES pH 6.8, 25 mM NaCl, 20 °C; apparent KD from the chemical shift perturbations of E739, assuming 1:1 binding; 1H-1H TOCSY on the final titration point.
Another series addresses T1, MBP-Pgm (Paramecium tetraurelia, UniProt A0DFJ7 1-1065).
T1 sequence: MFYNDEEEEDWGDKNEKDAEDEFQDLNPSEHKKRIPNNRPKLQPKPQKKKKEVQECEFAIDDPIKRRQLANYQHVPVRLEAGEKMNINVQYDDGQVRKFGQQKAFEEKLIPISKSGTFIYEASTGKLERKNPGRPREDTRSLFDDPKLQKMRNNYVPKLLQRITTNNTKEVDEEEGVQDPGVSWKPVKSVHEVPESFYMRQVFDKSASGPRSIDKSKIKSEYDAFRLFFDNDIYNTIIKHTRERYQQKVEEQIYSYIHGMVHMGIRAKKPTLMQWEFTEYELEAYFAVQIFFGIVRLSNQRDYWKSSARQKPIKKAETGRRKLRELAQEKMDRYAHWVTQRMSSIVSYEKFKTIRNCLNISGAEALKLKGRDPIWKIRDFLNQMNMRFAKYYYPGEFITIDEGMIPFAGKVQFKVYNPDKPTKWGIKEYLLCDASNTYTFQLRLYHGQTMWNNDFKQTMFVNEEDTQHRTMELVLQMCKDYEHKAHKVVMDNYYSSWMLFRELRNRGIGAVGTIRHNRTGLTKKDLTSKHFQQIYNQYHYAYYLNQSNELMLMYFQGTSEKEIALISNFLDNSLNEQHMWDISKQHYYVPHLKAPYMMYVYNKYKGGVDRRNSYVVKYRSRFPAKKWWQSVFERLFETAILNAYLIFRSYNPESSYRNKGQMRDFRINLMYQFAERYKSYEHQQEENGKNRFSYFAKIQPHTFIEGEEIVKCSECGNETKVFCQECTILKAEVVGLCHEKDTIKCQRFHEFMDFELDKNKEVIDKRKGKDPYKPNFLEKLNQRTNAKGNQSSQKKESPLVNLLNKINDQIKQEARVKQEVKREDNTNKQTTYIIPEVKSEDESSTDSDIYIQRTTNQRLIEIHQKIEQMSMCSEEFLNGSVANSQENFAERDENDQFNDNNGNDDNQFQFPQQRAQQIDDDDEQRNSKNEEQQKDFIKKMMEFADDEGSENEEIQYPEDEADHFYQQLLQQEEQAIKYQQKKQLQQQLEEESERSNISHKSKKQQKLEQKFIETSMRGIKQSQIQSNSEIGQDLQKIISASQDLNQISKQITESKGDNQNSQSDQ
In words: DRaCALA; 400 nM protein; DRaCALA: 25 mM HEPES pH 7.5, 0.1 mg/ml BSA, 0.5 mM DTT, 100 mM NaCl, 25 nM DNA, no competitor, temperature not stated; EMSA: as in earlier paper, 5% acrylamide. The conditions noted are these: protein: recombinant; tags: N-terminal MBP; label: 32P at 5' end of top strand. In general terms: In EMSA bound probe runs differently from free probe, usually more slowly.

The target in series [3] is T2, GST-Pgm(692-768) CRD (Paramecium tetraurelia, UniProt A0DFJ7 692-768).
T2 sequence: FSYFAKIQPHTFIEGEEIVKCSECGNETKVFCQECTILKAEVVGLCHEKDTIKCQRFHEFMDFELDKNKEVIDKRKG
In words: DRaCALA; no competitor DNA; DRaCALA: 25 mM HEPES pH 7.5, 0.1 mg/ml BSA, 0.5 mM DTT, 100 mM NaCl, 25 nM DNA, no competitor, temperature not stated; EMSA: as in earlier paper, 5% acrylamide. Particulars: protein: recombinant; tags: N-terminal GST; label: 32P at 5' end of top strand.

For series [4], the target named is T2, GST-Pgm(692-768) CRD. In words: EMSA; DRaCALA: 25 mM HEPES pH 7.5, 0.1 mg/ml BSA, 0.5 mM DTT, 100 mM NaCl, 25 nM DNA, no competitor, temperature not stated; EMSA: as in earlier paper, 5% acrylamide. The conditions noted are these: protein: recombinant; tags: N-terminal GST; label: 32P.
The target in the next series is T3, Pgm(692-768)* CRD (Paramecium tetraurelia, UniProt A0DFJ7 692-768).
T3 sequence: T2 sequence
In words: NMR (1H-1H NOESY); equimolar DNA; 2 Zn2+ in protein; DRaCALA: 25 mM HEPES pH 7.5, 0.1 mg/ml BSA, 0.5 mM DTT, 100 mM NaCl, 25 nM DNA, no competitor, temperature not stated; EMSA: as in earlier paper, 5% acrylamide. Particulars: protein: recombinant; tags: GST cleaved by PreScission; seven linker residues left at N-terminus; blunt.

These results are taken from publication PMC8086355, “The unusual structure of the PiggyMac cysteine-rich domain reveals zinc finger diversity in PiggyBac-related transposases”.

MBP-Pgm(692–768) (domain or fragment) registered a reduction of the ELISA interaction signal relative to unmodified H3(1–19) in series [1] of 30%.

As to H3(1–19) (peptide), the Kd in series [2] was determined as 289 µM.

B1: IES 51A1835 80-bp substrate (dsDNA)
DNA 1: ACTACTACATAATGCTAAACTCATTTATAGATGGATTGTTTTCCAAGTATCTATATCATCATGTGTTGCTAATAACCCTG
DNA 2: ATCGCAGGGTTATTAGCAACACATGATGATATAGATACTTGGAAAACAATCCATCTATAAATGAGTTTAGCATTATGTAGT
Consider B1, for which the binding result in the series with MBP-Pgm is “binds”; in the series with GST-Pgm(692-768) CRD [3], “no binding”.

B2: IES 51A4404 left end 70-bp substrate (dsDNA)
DNA 1: CTAGCTTACAACGCAGCTTGCACATCTCTAGTTGATGGTATTGTGGTGTTATTTTAAAAAGTAATATATT
DNA 2: CGATAATATATTACTTTTTAAAATAACACCACAATACCATCAACTAGAGATGTGCAAGCTGCGTTGTAAG
Consider B2, for which, in the series with GST-Pgm(692-768) CRD [4], the binding result is on record as “no binding”.

B3: i4404 (NMR) (dsDNA)
DNA 1: GCTTGCACATCTCTAGTTGATGG
DNA 2: CCATCAACTAGAGATGTGCAAGC
With B3, the binding result with Pgm(692-768)* CRD is on record as “no binding”.

B4: i1835 (NMR) (dsDNA)
DNA 1: CTACTACATAATGCTAAACTCATTTATAGATGGATTGTTTTCCAAGTATCTATATC
DNA 2: GATATAGATACTTGGAAAACAATCCATCTATAAATGAGTTTAGCATTATGTAGTAG
For the molecule B4, the binding result with Pgm(692-768)* CRD was “no binding”.
